From article PMC11127761

Columns and labels:
Experiment in all cases: electrochemical aptasensor (IPA 500 Hz, flow cell)
Details in all cases: 1-1000 pg/mL; NPY signal about 10x higher; 5' thiol C6 (disulfide reduced), 3' amino linker; aCSF pH 7.4 (composition by citation); SWV -0.4 to 0.0 V, 30 Hz; IPA 500 Hz in flow cell; assay temperature not stated
Somatostatin (SOM) = target: T1, Somatostatin (SOM) (UniProt P61278)
T1 sequence: AGCKNFFWKTFTSC

Peptide YY (PYY) = Peptide YY (PYY) (UniProt P10082)
Chain of Peptide YY (PYY) (P10082 29-64): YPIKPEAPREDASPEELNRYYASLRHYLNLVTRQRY

[1] = target: T2, Pancreatic polypeptide (PP) (UniProt P01298)
T2 sequence: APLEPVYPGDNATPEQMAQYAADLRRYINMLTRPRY

Measured: binding signal (fraction of NPY signal)

AGCAGCACAGAGGTCAGATGCAAACCACAGCCTGAGTGGTTAGCGTATGTCATTTACGGACCTATGCGTGCTACCGTGAA [Aptamer 4.31]
0.1: all assays above
